What was measured:
Human CD40 [1] = molecular target: T1, Human CD40 (human, UniProt P25942 21-277); test: cell-based or functional assay
Human CD40 [2] = molecular target: T1, Human CD40; test: cell-based or functional assay; remark: listed apart in the source

T1 sequence (P25942 21-277 limits assumed): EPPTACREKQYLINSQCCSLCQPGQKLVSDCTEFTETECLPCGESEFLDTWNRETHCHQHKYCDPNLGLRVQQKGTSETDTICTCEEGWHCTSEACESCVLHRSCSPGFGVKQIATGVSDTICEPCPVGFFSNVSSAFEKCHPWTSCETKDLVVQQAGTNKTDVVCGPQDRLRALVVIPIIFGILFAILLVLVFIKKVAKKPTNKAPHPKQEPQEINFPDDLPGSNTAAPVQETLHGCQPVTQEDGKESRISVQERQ

B1: huAb1v6 (antibody, V domains shown)
VH: EVQLVESGGGLVKPGGSLRLSCAASGFTFSDYGMNWVRQAPGKGLEWIAYISSGRSNIYYADTVKGRFTISRDNAKNSLYLQMNSLRAEDTAVYYCARSWGYFDVWGQGTTVTVSS
VL: DIVMTQSPDSLAVSLGERATINCKSSQSLLNLGNQKNYLTWFQQKPGQPPKLLIYWASTRESGVPDRFSGSGSGTDFTLTISSLQAEDVAVYYCQNDYTYPLTFGQGTKLEIK
- Antagonist: Jurkat/Reporter assay IC50 (Human CD40 [1]): 85 nM

B2: huAb1v1CDR2v10 (antibody, V domains shown)
VH: EVQLVESGGGLVKPGGSLRLSCAASGFTFSDYGMNWVRQAPGKGLEWIAYISSGRWNIYYADTVKGRFTISRDNAKNSLYLQMNSLRAEDTAVYYCARSWGYFDVWGQGTTVTVSS
VL: DIVMTQSPDSLAVSLGERATINCKSSQSLLNRGNQKNYLTWFQQKPGQPPKLLIYWASTRESGVPDRFSGSGSGTDFTLTISSLQAEDVAVYYCQNDYTYPLTFGQGTKLEIK
- Antagonist: Jurkat/Reporter assay (IC50 nM) (Human CD40 [2]): 23 nM

B3: huAb1v1CDR2v13 (antibody, V domains shown)
VH: EVQLVESGGGLVKPGGSLRLSCAASGFTFSDYGMNWVRQAPGKGLEWIAYISSGRHNIYYADTVKGRFTISRDNAKNSLYLQMNSLRAEDTAVYYCARSWGYFDVWGQGTTVTVSS
VL: DIVMTQSPDSLAVSLGERATINCKSSQSLLNRGNQKNYLTWFQQKPGQPPKLLIYWASTRESGVPDRFSGSGSGTDFTLTISSLQAEDVAVYYCQNDYTYPLTFGQGTKLEIK
- Antagonist: Jurkat/Reporter assay (IC50 nM) (Human CD40 [2]): 62.4 nM

B4: huAb1v1CDR2v8 (antibody, V domains shown)
VH: EVQLVESGGGLVKPGGSLRLSCAASGFTFSDYGMNWVRQAPGKGLEWIAYISSGRINIYYADTVKGRFTISRDNAKNSLYLQMNSLRAEDTAVYYCARSWGYFDVWGQGTTVTVSS
VL: DIVMTQSPDSLAVSLGERATINCKSSQSLLNRGNQKNYLTWFQQKPGQPPKLLIYWASTRESGVPDRFSGSGSGTDFTLTISSLQAEDVAVYYCQNDYTYPLTFGQGTKLEIK
- Antagonist: Jurkat/Reporter assay (IC50 nM) (Human CD40 [2]): > 1000 nM

B5: huAb1v1CDR2v1 (antibody, V domains shown)
VH: EVQLVESGGGLVKPGGSLRLSCAASGFTFSDYGMNWVRQAPGKGLEWIAYISSGRTNIYYADTVKGRFTISRDNAKNSLYLQMNSLRAEDTAVYYCARSWGYFDVWGQGTTVTVSS
VL: DIVMTQSPDSLAVSLGERATINCKSSQSLLNRGNQKNYLTWFQQKPGQPPKLLIYWASTRESGVPDRFSGSGSGTDFTLTISSLQAEDVAVYYCQNDYTYPLTFGQGTKLEIK
- Antagonist: Jurkat/Reporter assay (IC50 nM) (Human CD40 [2]): > 1000 nM

B6: huAb1v1CDR2v5 (antibody, V domains shown)
VH: EVQLVESGGGLVKPGGSLRLSCAASGFTFSDYGMNWVRQAPGKGLEWIAYISSGRVNIYYADTVKGRFTISRDNAKNSLYLQMNSLRAEDTAVYYCARSWGYFDVWGQGTTVTVSS
VL: DIVMTQSPDSLAVSLGERATINCKSSQSLLNRGNQKNYLTWFQQKPGQPPKLLIYWASTRESGVPDRFSGSGSGTDFTLTISSLQAEDVAVYYCQNDYTYPLTFGQGTKLEIK
- Antagonist: Jurkat/Reporter assay (IC50 nM) (Human CD40 [2]): > 1000 nM

B7: huAb1v1CDR2v11 (antibody, V domains shown)
VH: EVQLVESGGGLVKPGGSLRLSCAASGFTFSDYGMNWVRQAPGKGLEWIAYISSGRMNIYYADTVKGRFTISRDNAKNSLYLQMNSLRAEDTAVYYCARSWGYFDVWGQGTTVTVSS
VL: DIVMTQSPDSLAVSLGERATINCKSSQSLLNRGNQKNYLTWFQQKPGQPPKLLIYWASTRESGVPDRFSGSGSGTDFTLTISSLQAEDVAVYYCQNDYTYPLTFGQGTKLEIK
- Antagonist: Jurkat/Reporter assay (IC50 nM) (Human CD40 [2]): > 1000 nM

B8: huAb1v1CDR2v4 (antibody, V domains shown)
VH: EVQLVESGGGLVKPGGSLRLSCAASGFTFSDYGMNWVRQAPGKGLEWIAYISSGRRNIYYADTVKGRFTISRDNAKNSLYLQMNSLRAEDTAVYYCARSWGYFDVWGQGTTVTVSS
VL: DIVMTQSPDSLAVSLGERATINCKSSQSLLNRGNQKNYLTWFQQKPGQPPKLLIYWASTRESGVPDRFSGSGSGTDFTLTISSLQAEDVAVYYCQNDYTYPLTFGQGTKLEIK
- Antagonist: Jurkat/Reporter assay (IC50 nM) (Human CD40 [2]): 563 nM

B9: huAb1v1CDR2v3 (antibody, V domains shown)
VH: EVQLVESGGGLVKPGGSLRLSCAASGFTFSDYGMNWVRQAPGKGLEWIAYISSGRENIYYADTVKGRFTISRDNAKNSLYLQMNSLRAEDTAVYYCARSWGYFDVWGQGTTVTVSS
VL: DIVMTQSPDSLAVSLGERATINCKSSQSLLNRGNQKNYLTWFQQKPGQPPKLLIYWASTRESGVPDRFSGSGSGTDFTLTISSLQAEDVAVYYCQNDYTYPLTFGQGTKLEIK
- Antagonist: Jurkat/Reporter assay (IC50 nM) (Human CD40 [2]): 219 nM

B10: huAb1v1CDR2v15 (antibody, V domains shown)
VH: EVQLVESGGGLVKPGGSLRLSCAASGFTFSDYGMNWVRQAPGKGLEWIAYISSGRYNIYYADTVKGRFTISRDNAKNSLYLQMNSLRAEDTAVYYCARSWGYFDVWGQGTTVTVSS
VL: DIVMTQSPDSLAVSLGERATINCKSSQSLLNRGNQKNYLTWFQQKPGQPPKLLIYWASTRESGVPDRFSGSGSGTDFTLTISSLQAEDVAVYYCQNDYTYPLTFGQGTKLEIK
- Antagonist: Jurkat/Reporter assay (IC50 nM) (Human CD40 [2]): 340 nM

B11: huAb1v1CDR2v14 (antibody, V domains shown)
VH: EVQLVESGGGLVKPGGSLRLSCAASGFTFSDYGMNWVRQAPGKGLEWIAYISSGRFNIYYADTVKGRFTISRDNAKNSLYLQMNSLRAEDTAVYYCARSWGYFDVWGQGTTVTVSS
VL: DIVMTQSPDSLAVSLGERATINCKSSQSLLNRGNQKNYLTWFQQKPGQPPKLLIYWASTRESGVPDRFSGSGSGTDFTLTISSLQAEDVAVYYCQNDYTYPLTFGQGTKLEIK
- Antagonist: Jurkat/Reporter assay (IC50 nM) (Human CD40 [2]): 21.9 nM

B12: huAb1v1CDR2v17 (antibody, V domains shown)
VH: EVQLVESGGGLVKPGGSLRLSCAASGFTFSDYGMNWVRQAPGKGLEWIAYISSGRPNIYYADTVKGRFTISRDNAKNSLYLQMNSLRAEDTAVYYCARSWGYFDVWGQGTTVTVSS
VL: DIVMTQSPDSLAVSLGERATINCKSSQSLLNRGNQKNYLTWFQQKPGQPPKLLIYWASTRESGVPDRFSGSGSGTDFTLTISSLQAEDVAVYYCQNDYTYPLTFGQGTKLEIK
- Antagonist: Jurkat/Reporter assay (IC50 nM) (Human CD40 [2]): 504 nM

B13: huAb1v1CDR2v9 (antibody, V domains shown)
VH: EVQLVESGGGLVKPGGSLRLSCAASGFTFSDYGMNWVRQAPGKGLEWIAYISSGRQNIYYADTVKGRFTISRDNAKNSLYLQMNSLRAEDTAVYYCARSWGYFDVWGQGTTVTVSS
VL: DIVMTQSPDSLAVSLGERATINCKSSQSLLNRGNQKNYLTWFQQKPGQPPKLLIYWASTRESGVPDRFSGSGSGTDFTLTISSLQAEDVAVYYCQNDYTYPLTFGQGTKLEIK
- Antagonist: Jurkat/Reporter assay (IC50 nM) (Human CD40 [2]): 7.06 nM

B14: huAb1v1CDR2v2 (antibody, V domains shown)
VH: EVQLVESGGGLVKPGGSLRLSCAASGFTFSDYGMNWVRQAPGKGLEWIAYISSGRDNIYYADTVKGRFTISRDNAKNSLYLQMNSLRAEDTAVYYCARSWGYFDVWGQGTTVTVSS
VL: DIVMTQSPDSLAVSLGERATINCKSSQSLLNRGNQKNYLTWFQQKPGQPPKLLIYWASTRESGVPDRFSGSGSGTDFTLTISSLQAEDVAVYYCQNDYTYPLTFGQGTKLEIK
- Antagonist: Jurkat/Reporter assay (IC50 nM) (Human CD40 [2]): > 1000 nM

B15: huAb1v1CDR2v6 (antibody, V domains shown)
VH: EVQLVESGGGLVKPGGSLRLSCAASGFTFSDYGMNWVRQAPGKGLEWIAYISSGRLNIYYADTVKGRFTISRDNAKNSLYLQMNSLRAEDTAVYYCARSWGYFDVWGQGTTVTVSS
VL: DIVMTQSPDSLAVSLGERATINCKSSQSLLNRGNQKNYLTWFQQKPGQPPKLLIYWASTRESGVPDRFSGSGSGTDFTLTISSLQAEDVAVYYCQNDYTYPLTFGQGTKLEIK
- Antagonist: Jurkat/Reporter assay (IC50 nM) (Human CD40 [2]): > 1000 nM

B16: huAb1v1CDR2v16 (antibody, V domains shown)
VH: EVQLVESGGGLVKPGGSLRLSCAASGFTFSDYGMNWVRQAPGKGLEWIAYISSGRANIYYADTVKGRFTISRDNAKNSLYLQMNSLRAEDTAVYYCARSWGYFDVWGQGTTVTVSS
VL: DIVMTQSPDSLAVSLGERATINCKSSQSLLNRGNQKNYLTWFQQKPGQPPKLLIYWASTRESGVPDRFSGSGSGTDFTLTISSLQAEDVAVYYCQNDYTYPLTFGQGTKLEIK
- Antagonist: Jurkat/Reporter assay (IC50 nM) (Human CD40 [2]): 30.1 nM

B17: huAb1v1CDR2v12 (antibody, V domains shown)
VH: EVQLVESGGGLVKPGGSLRLSCAASGFTFSDYGMNWVRQAPGKGLEWIAYISSGRKNIYYADTVKGRFTISRDNAKNSLYLQMNSLRAEDTAVYYCARSWGYFDVWGQGTTVTVSS
VL: DIVMTQSPDSLAVSLGERATINCKSSQSLLNRGNQKNYLTWFQQKPGQPPKLLIYWASTRESGVPDRFSGSGSGTDFTLTISSLQAEDVAVYYCQNDYTYPLTFGQGTKLEIK
- Antagonist: Jurkat/Reporter assay (IC50 nM) (Human CD40 [2]): 236 nM

B18: huAb1v1 (antibody, V domains shown)
VH: EVQLVESGGGLVKPGGSLRLSCAASGFTFSDYGMNWVRQAPGKGLEWIAYISSGRSNIYYADTVKGRFTISRDNAKNSLYLQMNSLRAEDTAVYYCARSWGYFDVWGQGTTVTVSS
VL: DIVMTQSPDSLAVSLGERATINCKSSQSLLNRGNQKNYLTWFQQKPGQPPKLLIYWASTRESGVPDRFSGSGSGTDFTLTISSLQAEDVAVYYCQNDYTYPLTFGQGTKLEIK
- Antagonist: Jurkat/Reporter assay IC50 (Human CD40 [1]): 55 nM

B19: huAb1v4 (antibody, V domains shown)
VH: EVQLVESGGGLVKPGGSLRLSCAASGFTFSDYGMNWVRQAPGKGLEWIAYISSGRSNIYYADTVKGRFTISRDNAKNSLYLQMNSLRAEDTAVYYCARSWGYFDVWGQGTTVTVSS
VL: DIVMTQSPDSLAVSLGERATINCKSSQSLLNPGNQKNYLTWFQQKPGQPPKLLIYWASTRESGVPDRFSGSGSGTDFTLTISSLQAEDVAVYYCQNDYTYPLTFGQGTKLEIK
- Agonist: huCD40 reporter assay IC50 (Human CD40 [1]): 49 nM

B20: huAb1v3 (antibody, V domains shown)
VH: EVQLVESGGGLVKPGGSLRLSCAASGFTFSDYGMNWVRQAPGKGLEWVSYISSGRSNIYYADTVKGRFTISRDNAKNSLYLQMNSLRAEDTAVYYCARSWGYFDVWGQGTTVTVSS
VL: DIVMTQSPDSLAVSLGERATINCKSSQSLLNLGNQKNYLTWFQQKPGQPPKLLIYWASTRESGVPDRFSGSGSGTDFTLTISSLQAEDVAVYYCQNDYTYPLTFGQGTKLEIK
- Agonist: huCD40 reporter assay IC50 (Human CD40 [1]): 79 nM

B21: huAb1v2 (antibody, V domains shown)
VH: EVQLVESGGGLVKPGGSLRLSCAASGFTFSDYGMNWVRQAPGKGLEWVSYISSGRSNIYYADTVKGRFTISRDNAKNSLYLQMNSLRAEDTAVYYCARSWGYFDVWGQGTTVTVSS
VL: DIVMTQSPDSLAVSLGERATINCKSSQSLLNTGNQKNYLTWFQQKPGQPPKLLIYWASTRESGVPDRFSGSGSGTDFTLTISSLQAEDVAVYYCQNDYTYPLTFGQGTKLEIK
- Antagonist: Jurkat/Reporter assay IC50 (Human CD40 [1]): > 100 nM
